# T1: RNase/ANG inhibitor 1 (RNH1), endogenous protein in sorted mouse LKS cells and myeloid-restricted progenitors (mouse, UniProt Q91VI7 1-456)
# T1 sequence (looked up): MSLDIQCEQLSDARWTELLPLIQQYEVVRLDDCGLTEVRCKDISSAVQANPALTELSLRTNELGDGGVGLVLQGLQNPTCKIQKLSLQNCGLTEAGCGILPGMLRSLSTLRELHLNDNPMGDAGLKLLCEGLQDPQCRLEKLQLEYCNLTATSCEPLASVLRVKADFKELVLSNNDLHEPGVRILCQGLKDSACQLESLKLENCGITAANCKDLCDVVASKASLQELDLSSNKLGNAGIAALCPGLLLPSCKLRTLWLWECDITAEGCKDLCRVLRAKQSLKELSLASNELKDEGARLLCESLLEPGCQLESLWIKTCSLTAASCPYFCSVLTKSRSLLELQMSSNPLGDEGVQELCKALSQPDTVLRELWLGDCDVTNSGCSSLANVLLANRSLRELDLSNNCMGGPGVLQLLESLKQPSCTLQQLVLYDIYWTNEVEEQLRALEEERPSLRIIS
# Biological target: T1, RNase/ANG inhibitor 1 (RNH1), …
# Assay: double immunofluorescence and acceptor-photobleaching FRET (AF488 donor, AF555 acceptor) on fixed sorted mouse cells
# Description: For ANG/RNH1 localization, cells were stained with an in-house made mouse ANG-specific C527 monoclonal antibody (10 μg/ml) and R127 rabbit pAb of RNH1 (5 μg/ml), followed with AF488-conjugated rabbit anti-mouse (Thermo Scientific A11059, 1:600 dilution) and AF555-conjugated goat anti-rabbit (Thermo Scientific A21428, 1:600 dilution). Appropriate isotype controls were used at the same concentration. Images were acquired using Nikon A1R confocal microscopy.
# FRET was performed using the acceptor photo-bleaching method, as previously described (Pizzo et al., 2013). Briefly, AF488 was used as the donor and AF555 as the acceptors. Signals were photobleached to less than 10% of the initial fluorescent measurement. ROI measurements from LKS cells and myeloid-restricted progenitors were taken from 10 individual cells. FRET efficiency was calculated using the formula […], where ID and IDA are fluorescence intensities before and after photobleaching, respectively. FRET was performed using Leica SP2 confocal microscopy.
# The exact subcellular compartment where tiRNA is produced by ANG is currently unknown, but it has been shown that tiRNA production is correlated to SG localization of ANG in stressed cells (Pizzo et al., 2013). […]
binder,measurement,value
"Angiogenin (ANG), endogenous mouse protein in sorted LKS cells and myeloid-restricted progenitors (enzyme, UniProt P21570 25-145, looked up, Endogenous intracellular protein, not the recombinant ANG preparation; also called ribonuclease 5; RNase5) QDDSRYTKFLTQHHDAKPKGRDDRYCERMMKRRSLTSPCKDVNTFIHGNKSNIKAICGANGSPYRENLRMSKSPFQVTTCKHTGGSPRPPCQYRASAGFRHVVIACENGLPVHFDESFFSL",binding result,binds

# From patent US20190000885A1 (GENERAL HOSPITAL, published 2019)
